Laboratory results from patent EP2646050B1 (mAB-Factory GmbH, dated 2016).

How the values were obtained:
Assay in all cases: peptide SPOT membrane
[1] = biological target: 15mer peptide 55 of H5 (A/Anhui/1/2005) (Influenza A virus A/Anhui/1/2005 (H5N1))
[2] = biological target: 15mer peptide 56 of H5 (A/Anhui/1/2005) (Influenza A virus A/Anhui/1/2005 (H5N1))
[3] = biological target: 15mer peptide 57 of H5 (A/Anhui/1/2005) (Influenza A virus A/Anhui/1/2005 (H5N1))

Measured: binding result

B1: scFv-murine IgG1 Fc fusion of clone 8 (JM6_SC-D3) (Fc fusion)
chain: MAAVTLDESGGGLQKPGGGLSLVCKASGFPFSSYSMQWVRQAPGKGLEWVAGIGNAGSYTGYGAAVKGRATISRDNGQSTVRLQLNNLRAEDTGTYYCAKSAYAGSCAGCVDSIDAWGHGTEVMVSSGSASAPKLEEGEFSEARVALTQPSSVSANPGETVKITCSGDDSWYGWYQQKSPGSAPVTVIYYNNNRPSDIPLRFSGSTSGSTSTLTITGVQADDEAVYFCGSWDRSSGAGIFGAGTTLTVLGAA
no binding: all assays above
